Target: T1, αENaC (Homo sapiens, UniProt P37088)
T1 sequence (P37088 1-669): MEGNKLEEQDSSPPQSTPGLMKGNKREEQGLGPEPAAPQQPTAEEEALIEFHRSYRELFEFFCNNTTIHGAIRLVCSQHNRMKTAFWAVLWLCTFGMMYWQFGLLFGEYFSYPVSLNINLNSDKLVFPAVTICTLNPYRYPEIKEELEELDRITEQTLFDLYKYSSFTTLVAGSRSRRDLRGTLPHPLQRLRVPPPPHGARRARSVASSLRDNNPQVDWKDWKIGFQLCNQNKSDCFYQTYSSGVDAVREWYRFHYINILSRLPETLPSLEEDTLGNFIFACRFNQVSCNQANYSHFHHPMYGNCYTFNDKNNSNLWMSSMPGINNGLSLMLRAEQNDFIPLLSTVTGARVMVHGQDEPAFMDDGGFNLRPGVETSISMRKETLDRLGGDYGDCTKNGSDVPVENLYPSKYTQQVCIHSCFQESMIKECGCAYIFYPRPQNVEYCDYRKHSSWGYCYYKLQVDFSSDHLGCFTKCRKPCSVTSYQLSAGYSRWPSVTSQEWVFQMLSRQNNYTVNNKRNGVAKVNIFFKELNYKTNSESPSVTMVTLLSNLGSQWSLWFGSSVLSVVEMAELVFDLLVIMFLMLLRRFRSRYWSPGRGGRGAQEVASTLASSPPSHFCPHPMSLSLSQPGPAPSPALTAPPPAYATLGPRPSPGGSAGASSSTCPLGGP
Assay: Texas red-SPLUNC1 binding assay on JME cells expressing yfp-αENaC
Parameters: expressed in transfected cells; host or cells: JME nasal epithelial cells that no longer express ENaC, lentivirus pQCXIN
Details: Texas red-rSPLUNC1, 30 min, polarized JME cells with yfp-αENaC; Hill fit
Procedure: JME cells were incubated with varying concentrations of Texas red-labeled SPLUNC1 for 30 min followed by a 5× wash with PBS. After this time images were acquired with a Nikon Ti-S inverted microscope and were quantified to obtain specific and non-specific binding using Image J. Data were then fitted with a Hill Plot to obtain the Kd.
JME nasal epithelial cells express functional ENaCs (Tong et al., Am. J. Physiol. Lung Cell. Mol. Physiol. 287:L928 (2004)). However, this attribute is lost after several passages. Thus, passaged JME cells that no longer expressed ENaC were stably infected with a lentivirus containing yfp-αENaC or an empty vector as a control and the presence or absence of αENaC was confirmed using an antibody that was constructed “in-house” that was directed against αENaC (FIG. 8).
Recombinant SPLUNC1 was labeled with Texas red according to the manufacturer's instructions (Pierce) and was freshly labeled on the day of each binding experiment. […] After this time yfp (514 nm excitation) and Texas red fluorescence (590 nm excitation) were imaged under a 60× water objective on a Nikon Ti-S inverted microscope equipped with an Orca CCD camera (Hamamatsu) switchable filter wheels (Ludl). Background fluorescence was subtracted from all images and the mean thresholded intensity was quantified to obtain specific and non-specific binding using Image J.

B1: SPLUNC1: human SPLUNC1 (SEQ ID NO:1), 256 amino acid secreted PLUNC family protein; rSPLUNC1 is the purified V5/6His-tagged recombinant form (protein, listed as Homo sapiens)
chain: MFQTGGLIVFYGLLAQTMAQFGGLPVPLDQTLPLNVNPALPLSPTGLAGSLTNALSNGLLSGGLLGILENLPLLDILKPGGGTSGGLLGGLLGKVTSVIPGLNNIIDIKVTDPQLLELGLVQSPDGHRLYVTIPLGIKLQVNTPLVGASLLRLAVKLDITAEILAVRDKQERIHLVLGDCTHSPGSLQISLLDGLGPLPIQGLLDSLTGILNKVLPELVQGNVCPLVNEVLRGLDITLVHDIVNMLIHGLQFVIKV
modifications: V5/6His tag in recombinant form
notes: rSPLUNC1 is the purified V5/6His-tagged recombinant form
- Kd: 0.055 µg/mL

Reference: patent US9127040B2, “Regulation of sodium channels by PLUNC proteins” (The University of North Carolina at Chapel Hill, priority 2011, dated 2015)
